pEC50, pKd: −log10 of the molar value. Values belong to the substance of their own block, whether it stands above or below them.
Assays:
[1] = molecular target: recombinant human GPC3 protein (human) (UniProt P51654); assay: BLI (Octet), antibody on Protein A probe
[2] = molecular target: recombinant human GPC3 protein (human) (UniProt P51654); assay: BLI (Octet), antibody on Protein A probe; remark: listed apart in the source
[3] = molecular target: human GPC3 on cells (human) (UniProt P51654); assay: flow cytometry, CHO-human GPC3 cells
[4] = molecular target: recombinant human GPC3 protein (human) (UniProt P51654); assay: SPR (Biacore T200), antibody on Protein A chip, GPC3 as analyte
[5] = molecular target: recombinant cynomolgus monkey GPC3 full-length protein (cynomolgus monkey); assay: as above
[6] = molecular target: human GPC3 on cells (human) (UniProt P51654); assay: flow cytometry on human GPC3-CHO stably-transfected cells, MFI
[7] = molecular target: recombinant cynomolgus monkey GPC3 full-length protein (cynomolgus monkey); assay: ELISA on coated recombinant cynomolgus monkey GPC3 protein, OD450 [panel Recombinant cynomolgus monkey GPC3 protein]
[8] = molecular target: recombinant GST-human GPC3 stem protein (human); assay: ELISA, coated antigen 1 µg/ml
[9] = molecular target: recombinant human GPC3 protein (human) (UniProt P51654); assay: ELISA, coated antigen 1 µg/ml
[10] = molecular target: recombinant cynomolgus monkey GPC3 full-length protein (cynomolgus monkey); assay: ELISA, coated antigen 1 µg/ml
[11] = molecular target: recombinant human GPC3 protein (human) (UniProt P51654); assay: ELISA on coated recombinant human GPC3 protein, OD450 [panel Recombinant human GPC3 protein]
[12] = molecular target: human CD3 on T cells (human) (UniProt P07766); assay: flow cytometry, human peripheral blood CD8+ T cells
[13] = molecular target: human CD3 on T cells (human) (UniProt P07766); assay: flow cytometry, Jurkat cells
[14] = molecular target: human CD3 on T cells (human) (UniProt P07766); assay: flow cytometry, human peripheral blood CD4+ T cells

Chain of recombinant GST-human GPC3 stem protein (human) (chain, as listed by the source limits assumed, form in doubt): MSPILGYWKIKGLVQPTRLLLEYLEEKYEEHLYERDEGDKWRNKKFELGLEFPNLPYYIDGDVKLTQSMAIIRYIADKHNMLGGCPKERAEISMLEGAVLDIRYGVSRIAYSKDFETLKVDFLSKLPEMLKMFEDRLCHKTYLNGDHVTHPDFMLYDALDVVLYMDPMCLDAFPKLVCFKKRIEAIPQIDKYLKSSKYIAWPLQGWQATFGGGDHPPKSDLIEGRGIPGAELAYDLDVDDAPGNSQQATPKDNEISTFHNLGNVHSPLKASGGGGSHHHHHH

pKd [1]: 8.38 | koff [1]: 0.000229 s⁻¹ | kon [1]: 54900 M⁻¹ s⁻¹ | pKd [2]: 8.87 | koff [2]: 0.000111 s⁻¹ | kon [2]: 82600 M⁻¹ s⁻¹ | pEC50 [3]: 8.56 | pKd [4]: 8.99 | koff [4]: 0.000185 s⁻¹ | kon [4]: 181000 M⁻¹ s⁻¹ | pKd [5]: 8.20 | koff [5]: 0.000429 s⁻¹ | kon [5]: 67200 M⁻¹ s⁻¹ | EC50 (read off the curve) [6]: 4 nM | EC50 (read off the curve) [7]: 0.03 nM | pEC50 [8]: 10.22 | pEC50 [9]: 10.13 | pEC50 [10]: 9.80 | EC50 (read off the curve) [11]: 0.03 nM
Substance: GC33 (antibody)

pEC50 [12]: 7.08 | pEC50 [13]: 7.57 | pEC50 [14]: 7.11
Substance: KLH×CD3 (bispecific antibody)

pEC50 [13]: 9.57
Substance: OKT3-hIgG1 (antibody)
